Test results published in patent publication US20220112288A1 (published 2022).
Substitutions are numbered along the chain they refer to.

B1: 75110_14H13A (antibody, V domains shown)
VH: EVQLVESGGGLVQPGGSLRLSCAASGFTFSNYDMHWVRQATGKGLEWVSTIGTAGDTYYPGSVKGRFTISRKNAKNSLYLQMISLRAGDTAVYYCARGGDYYYGMDVWGQGTTVTVSS
VL: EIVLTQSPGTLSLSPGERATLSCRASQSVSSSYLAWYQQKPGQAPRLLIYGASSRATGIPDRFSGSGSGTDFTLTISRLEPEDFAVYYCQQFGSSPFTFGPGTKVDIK
notes: Tested as clonal hybridoma supernatant from AlivaMab Mouse Kappa mice: human variable regions, human kappa, mouse Fc
B2: 75110_10O16A (antibody, V domains shown)
VH: B1 VH with Y32S, K72E, I83N, D100L
VL: ENVLTQSPGTLSLSPGERATLSCRASQSVSSSYLAWYQQKPGQAPRLLIYGASSRATGIPDRFSGSGSGTDFTLTISRLEPEDFAVYYCHQFGSSPFTFGPGTKVDIK
notes: Tested as clonal hybridoma supernatant from AlivaMab Mouse Kappa mice: human variable regions, human kappa, mouse Fc (detected with anti-mouse Fc gamma); also called 75110_10016A
B3: 75110_13C07A (antibody, V domains shown)
VH: B1 VH with G10V, I69L, K72E, I83H, G99A, D100Y, Y101G
VL: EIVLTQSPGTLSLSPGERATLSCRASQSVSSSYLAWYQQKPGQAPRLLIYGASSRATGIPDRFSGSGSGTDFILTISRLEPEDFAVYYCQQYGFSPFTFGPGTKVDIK
notes: as for B1
B4: 75110_12K21A (antibody, V domains shown)
VH: QVQLQQWGAGLLKPSETLSLTCAVSGGSFSGYYWSWIRQPPGKGLEWIGEINHSGSTNCNPSLKSRVTISVDTSNNQFSLKLSSVTAADTAVYYCARVLNYFDYWGQGTLVTVSS
VL: DIQMTQSPSSVSASVGDRVTITCRASPDIANWLAWYQQKPGKAPELLIYAASSLQSGVPSRFSGSGSGTDFTLTISSLQPEDFATYFCQQANSFPLTFGGGTKVESK
notes: as for B1
B5: 75110_13P21A (antibody, V domains shown)
VH: B4 VH
VL: B4 VL
notes: as for B1
B6: 75110_13C13A (antibody, V domains shown)
VH: B4 VH with N75K, V92M, Y101F
VL: B4 VL with S7T, D28G, A30S
notes: as for B1
B7: 75110_14G10A (antibody, V domains shown)
VH: EVQLVESGGGLVKPGGSLRLSCAASGFTFSSYSMNWVRQAPGKGLEWVSFISSSSSYIYYADSVKGRFTISRDNAKNSLYLQMNSLRAEDTAVYYCARERGDDYGDYEGAFDIWGQGTMVTVSS
VL: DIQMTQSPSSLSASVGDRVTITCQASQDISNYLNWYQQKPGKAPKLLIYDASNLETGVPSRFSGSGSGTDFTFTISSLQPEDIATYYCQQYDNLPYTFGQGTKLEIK
notes: as for B1
B8: 75110_11D03A (antibody, V domains shown)
VH: EVQLVESGGGLVQPGGSLRLSCAASGFTFSSYWMSWVRQAPGKGLEWVANINQDGNEKYYVDSVKGRFTISRDNAKNSLFLQMNSLRAEDTAVYYCAREGGQWLALDYWGQGALVTVSS
VL: DIQMTQSPSSVSASVGDRVTITCRASQGISSWLAWYQQKPGKAPKFLISGASSLQSGVPSRFSGSGSGTDFTLTISSLQPEDFATYYCQQANSFPWTFGQGTKVEIK
notes: as for B1
B9: 75110_13P22A (antibody, V domains shown)
VH: B4 VH with V24A, S25Y, P40S, H53Q, S56N, C59Y, V71A, N75K, Y101W, T109I
VL: B8 VL with S31D, P40S, K45D, F46L, S49F, G50A, W96Y, V104L
notes: as for B1
B10: 75110_12C19A (antibody, V domains shown)
VH: B8 VH with N52K, Q53E, N56S, E57D, F80Y, Y94H, A97V, A113T
VL: B8 VL with A13G, F46L, S49Y, A84V
notes: as for B1
B11: 75110_12H17A (antibody, V domains shown)
VH: B8 VH with S31D, N52K, Q53E
VL: B8 VL with S63T
notes: as for B1
B12: 75110_12H19A (antibody, V domains shown)
VH: B8 VH with K43Q, Q53E, Y60H, F68L, F80Y, A88G, E89V, Y95F
VL: B8 VL with T20S, F46L, S49Y, S53G
notes: as for B1

Target: T1, human CD4 on human PBMCs (human, UniProt P01730 26-458)
T1 construct: whole, on cells; the CD4-positive gate was set with the control antibodies OKT4 and RPA-T4; also called hCD4
Assay: FACS, clonal hybridoma supernatant on human PBMCs

Row | % CD4 Stain [%] | gMFI of CD4+ [gMFI] | Binder
1 | 35.3 | 160000 | B1
2 | 37.2 | 133000 | B2
3 | 37.5 | 56000 | B3
4 | 37.2 | 147000 | B4
5 | 27.2 | 31800 | B5
6 | 28.6 | 123000 | B6
7 | 31.1 | 241000 | B7
8 | 30.1 | 217000 | B8
9 | 37.5 | 185000 | B9
10 | 24.4 | 56500 | B10
11 | 37.3 | 197000 | B11
12 | 36.8 | 284000 | B12
